Experimental data from patent publication US9403908B2, “Method for altering hematopoietic progenitor cell adhesion, differentiation, and migration” (The Regents of the University of California, priority 2003, dated 2016).

Experiments:
[1] = test system: bFGF or VEGF induced angiogenesis in Matrigel; test: Murine Matrigel angiogenesis assay (bFGF or VEGF); assay type: in vivo, mouse; conditions: peptide antagonist; 50 μM in bFGF matrigel, nude mice (FIG. 19G)
Protocol: (B, C) Adhesion of endothelial cells to plastic plates coated with 5 μg/ml CS-1 fibronectin, in the presence of medium, anti-α4β1 (HP1/2) or control antibodies (P1F6). (D) Cryosections from bFGF stimulated, saline or antibody-treated CAMs were immunostained to detect blood vessel expression of von Willebrand Factor. (E) Angiogenesis was initiated in FVB/N mice by corneal transplantation of polymerized pellets containing 400 ng/ml of VEGF. Animals (n=5) were treated on day 0 and day 3 with anti-α4β1 (PS/2) or control IgG (cIgG). Fifteen minutes prior to sacrifice on day 5, mice were injected intravenously with endothelial specific lectin, Bandeira simplifolia-FITC and tissues were cryopreserved. Angiogenic response to VEGF was quantified as the percent green fluorescent area visible under high power magnification (100×). […] Matrigel plugs were homogenized in RIPA buffer and fluorescence intensity determined.
[…] Microvessel density was quantified in 10 randomly selected 200× microscopic fields for each plug in each treatment group (n=8). […] Angiogenic response to VEGF was quantified as the percent green fluorescent area visible at 100× magnification. […] Tumor dimensions were determined every other day and tumor mass was determined after four weeks of treatment. […] Statistical significance was determined using Student's t-test.

human CD34+ stem cells = test: CD34+ stem cell adhesion to HUVEC monolayers; assay type: cell-based; conditions: 60 minutes, 25 μg/ml HP2/1 or P1F6 (FIG. 34d-e)
Protocol: Adhesion assays were performed on plastic 48 well plates coated with 5 μg/ml of recombinant H120 CS-1 fibronectin (from Martin J. Humphries, University of Birmingham, UK) as described (Kim et al. (2000) Am. J. Pathol. 156, 1345-1362). Stem cells were incubated on coated plates for 30 minutes in the presence of 25 μg/ml anti-α4β1_(HP2/1) or anti-αvβ5 (P1F6, from Dr. David Cheresh, the Scripps Research Institute). CMTMR labeled stem cells were incubated in HEPES buffered serum free culture medium in the presence of 25 μg/ml HP2/1 or P1F6 on HUVEC monolayers for 60 minutes at 37° C. Unbound cells were removed by washing gently with PBS. Cells were fixed in 3.7% parafomaldeyde. Representative fields were photographed at 200× and the number of cells adhering per field was quantified in five representative fields per treatment condition.

[2] = test system: endothelial progenitor cells (EPCs); test: Adhesion of DiI-labeled EPCs to endothelial (HUVEC) monolayers; assay type: cell-based, human; conditions: DiI-labeled EPCs on proliferating HUVEC monolayers; FIG. 17D
Protocol: (A-B) Adhesion of purified EPCs on plastic plates coated with (A) 5 μg/ml CS-1 fibronectin or (B) recombinant soluble VCAM in the presence of medium, anti-α4β1 (HP1/2) or control antibodies (P1F6). (C) Adhesion of DiI-labeled purified EPCs to HUVEC monolayers VCAM in the presence of medium, anti-α4β1 (HP1/2) or control antibodies (P1F6). Cells were quantified by counting adherent red fluorescent cells per 200× microscopic field. (D) Adhesion of DiI-labeled purified EPCs to HUVEC monolayers in the presence of medium, rsVCAM or control protein. Statistical significance was determined using Student's t-test.
To determine whether EPCs can attach to proliferating vascular endothelium that has been stimulated by angiogenic growth factors, we plated EPCs labeled with DiI-acetylated LDL onto proliferating endothelial monolayers. EPCs bound strongly to endothelium in a α4β1 dependent manner (FIG. 17C) and that rsVCAM blocked EPC attachment to endothelial monolayers (FIG. 17D). […] Thus, α4β1 mediates the attachment of EPCs to VCAM on vascular endothelium. […]

| Molecule | neovascularization in Matrigel model [1] | stem cell adhesion to endothelial cell (EC) monolayers (human CD34+ stem cells) | EPC attachment to endothelial monolayers [2] |
| --- | --- | --- | --- |
| EILDV | blocked | – | – |
| rsVCAM: recombinant soluble VCAM, a competitive inhibitor of integrin α4β1 function (protein) FKIETTPESRYLAQIGDSVSLTCSTTGCESPFFSWRTQIDSPLNGKVTNEGTTSTLTMNPVSFGNEHSYLCTATCESRKLEKGIQVEIYSFPKDPEIHLSGPLEAGKPITVKCSVADVYPFDRLEIDLLKGDHLMKSQEFLEDADRKSLETKSLEVTFTPVIEDIGKVLVCRAKLHIDEMDSVPTVRQAVKELQVYISPKNTVISVNPSTKLQEGGSVTMTCSSEGLPAPEIFWSKKLDNGNLQHLSGNATLTLIAMRMEDSGIYVCEGVNLIGKNRKEVELIVQEKPFTVEISPGPRIAAQIGDSVMLTCSVMGCESPSFSWRTQIDSPLSGKVRSEGTNSTLTLSPVSFENEHSYLCTVTCGHKKLEKGIQVELYSFPRDPEIEMSGGLVNGSSVTVSCKVPSVYPLDRLEIELLKGETILENIEFLEDTDMKSLENKSLEMTFIPTIEDTGKALVCQAKLHIDDMEFEPKQRQSTQTLYVNVAPRDTTVLVSPSSILEEGSSVNMTCLSQGFPAPKILWSRQLPNGELQPLSENATLTLISTKMEDSGVYLCEGINQAGRSRKEVELIIQVTPKDIKLTAFPSESVKEGDTVIISCTCGNVPETWIILKKKAETGDTVLKSIDGAYTIRKAQLKDAGVYECESKNKVGSQLRSLTLDVQGRENNKDYFSPE | – | blocked | blocked |
